Sequences and labels used below:
B1: Hairpin Ribozyme (parent)
chain: GUCCUCUUUCACGUGCGCGUGAAAGAGAGAAGUGAACCAGAGAAACACACGUUGUGGUAUAUUACCUGGUA

Results on 76 variants are retold here after the RNAGym collection of RNA variant scans (doi:10.7554/elife.80360).

In the data set the parent is B1. The experiment in a line: self-cleavage, relative activity (ratio to wild type); higher = more cleavage; co-transcriptional.
With GUCCUCUUUCACGUGCGCGUGAAAGAGAGAAGUGAACCAGAGAAACACACGUUGUAGUAUAUUACCAGGUA, the self-cleavage worked out at 0.197.

For GUCCUCUUUCACGUGCGCGUGAAAGAGAGAAGUGAACCAGAGAAACACACGUUUUGGUAUAUUACCUGGAA, the self-cleavage stood at 0.657.

For the variant GUCCUCUUUCACGUGCGCGUGAAAGAGAGAAGUGAACCAGAGAAACACACGUUGCGGUAUAUUACAUGGUA, the self-cleavage turned out to be 0.13.

On to GUCCUCUUUCACGUGCGCGUGAAAGAGAGAAGUGAACCAGAGAAACACACGUUGCGGUAUAUUACGUGGUA, for which the self-cleavage was found to be 0.191.

On to GUCCUCUUUCACGUGCGCGUGAAAGAGAGAAGUGAACCAGAGAAACACACGUUGUCGUAUAUUACCUGGUU, for which the self-cleavage came to 0.119.

As for GUCCUCUUUCACGUGCGCGUGAAAGAGAGAAGUGAACCAGAGAAACACACGUUGGGGUAUAUUACCUGGUG, the self-cleavage was 0.241.

GUCCUCUUUCACGUGCGCGUGAAAGAGAGAAGUGAACCAGAGAAACACACGUUGUAGUAGAUUACCUGGUA: the self-cleavage was found to be 0.186.

GUCCUCUUUCACGUGCGCGUGAAAGAGAGAAGUGAACCAGAGAAACACACGUUGAGGUCUAUUACCUGGUA: the self-cleavage was determined as 0.252.

On to GUCCUCUUUCACGUGCGCGUGAAAGAGAGAAGUGAACCAGAGAAACACACGUUGAGGUGUAUUACCUGGUA, for which the self-cleavage is 0.163.

Consider GUCCUCUUUCACGUGCGCGUGAAAGAGAGAAGUGAACCAGAGAAACACACGUUUUGGAAUAUUACCUGGUA, for which the self-cleavage was found to be 0.302.

On to GUCCUCUUUCACGUGCGCGUGAAAGAGAGAAGUGAACCAGAGAAACACACGUUGUAGUAUAUUACCUGGAA, for which the self-cleavage was 0.223.

For GUCCUCUUUCACGUGCGCGUGAAAGAGAGAAGUGAACCAGAGAAACACACGUUGUAGUAUAUUACCUGGCA, the self-cleavage is 0.247.

With GUCCUCUUUCACGUGCGCGUGAAAGAGAGAAGUGAACCAGAGAAACACACGUUGGGGUAUAUUACCUGCUA, the self-cleavage came out at 0.257.

GUCCUCUUUCACGUGCGCGUGAAAGAGAGAAGUGAACCAGAGAAACACACGUUGGGGUAUAUUCCCUGGUA: the self-cleavage is 0.153.

As to GUCCUCUUUCACGUGCGCGUGAAAGAGAGAAGUGAACCAGAGAAACACACGUUGGGGUAUAUUUCCUGGUA, the self-cleavage was 0.158.

For the variant GUCCUCUUUCACGUGCGCGUGAAAGAGAGAAGUGAACCAGAGAAACACACGUUUUGGUAUACUACCUGGUA, the self-cleavage was 0.172.

As to GUCCUCUUUCACGUGCGCGUGAAAGAGAGAAGUGAACCAGAGAAACACACGUUGAGGUAUAUUACCUUGUA, the self-cleavage was 0.17.

As for GUCCUCUUUCACGUGCGCGUGAAAGAGAGAAGUGAACCAGAGAAACACACGUUGCUGUAUAUUACCUGGUA, the self-cleavage turned out to be 0.321.

As to GUCCUCUUUCACGUGCGCGUGAAAGAGAGAAGUGAACCAGAGAAACACACGUUUUGGUAUAUGACCUGGUA, the self-cleavage worked out at 0.159.

For the variant GUCCUCUUUCACGUGCGCGUGAAAGAGAGAAGUGAACCAGAGAAACACACGUUUUGGUAUAUAACCUGGUA, the self-cleavage was 0.267.

Take GUCCUCUUUCACGUGCGCGUGAAAGAGAGAAGUGAACCAGAGAAACACACGUUGCGGUAUAUUAACUGGUA: the self-cleavage was 0.142.

With GUCCUCUUUCACGUGCGCGUGAAAGAGAGAAGUGAACCAGAGAAACACACGUUGCGGUUUAUUACCUGGUA, the self-cleavage was determined as 0.239.

GUCCUCUUUCACGUGCGCGUGAAAGAGAGAAGUGAACCAGAGAAACACACGUUGUCGUAUAAUACCUGGUA: the self-cleavage stood at 0.263.

GUCCUCUUUCACGUGCGCGUGAAAGAGAGAAGUGAACCAGAGAAACACACGUUGAGGUAUAUUACCUGGUC: the self-cleavage came to 0.697.

Take GUCCUCUUUCACGUGCGCGUGAAAGAGAGAAGUGAACCAGAGAAACACACGUUGAGGUAUAUUACCUGGUG: the self-cleavage worked out at 0.14.

Regarding GUCCUCUUUCACGUGCGCGUGAAAGAGAGAAGUGAACCAGAGAAACACACGUUGUCGUACAUUACCUGGUA, the self-cleavage came out at 0.156.

Regarding GUCCUCUUUCACGUGCGCGUGAAAGAGAGAAGUGAACCAGAGAAACACACGUUGUCGUAAAUUACCUGGUA, the self-cleavage was determined as 0.106.

Turning to GUCCUCUUUCACGUGCGCGUGAAAGAGAGAAGUGAACCAGAGAAACACACGUUUUGGUAUAUUACCAGGUA, the self-cleavage amounted to 0.207.

For GUCCUCUUUCACGUGCGCGUGAAAGAGAGAAGUGAACCAGAGAAACACACGUUGUAGUAUAGUACCUGGUA, the self-cleavage amounted to 0.293.

As to GUCCUCUUUCACGUGCGCGUGAAAGAGAGAAGUGAACCAGAGAAACACACGUUGCGCUAUAUUACCUGGUA, the self-cleavage was found to be 0.12.

On to GUCCUCUUUCACGUGCGCGUGAAAGAGAGAAGUGAACCAGAGAAACACACGUUGAGGUAUAUUAGCUGGUA, for which the self-cleavage was determined as 0.19.

With GUCCUCUUUCACGUGCGCGUGAAAGAGAGAAGUGAACCAGAGAAACACACGUUGGGGUAUAUUACCUGGGA, the self-cleavage stood at 0.17.

With GUCCUCUUUCACGUGCGCGUGAAAGAGAGAAGUGAACCAGAGAAACACACGUUGGGGUAUAUUACCUGGAA, the self-cleavage was 0.351.

Take GUCCUCUUUCACGUGCGCGUGAAAGAGAGAAGUGAACCAGAGAAACACACGUUGCGGUAUAUUACCUGGAA: the self-cleavage came out at 0.143.

As to GUCCUCUUUCACGUGCGCGUGAAAGAGAGAAGUGAACCAGAGAAACACACGUUGCGGUAUAUUACCUGGCA, the self-cleavage was 0.195.

Consider GUCCUCUUUCACGUGCGCGUGAAAGAGAGAAGUGAACCAGAGAAACACACGUUGUCGUAUUUUACCUGGUA, for which the self-cleavage was 0.177.

Regarding GUCCUCUUUCACGUGCGCGUGAAAGAGAGAAGUGAACCAGAGAAACACACGUUGAGGUAUAUUACCUGUUA, the self-cleavage came to 0.146.

For GUCCUCUUUCACGUGCGCGUGAAAGAGAGAAGUGAACCAGAGAAACACACGUUGAGGUAUAUUACCUGAUA, the self-cleavage was 0.172.

On to GUCCUCUUUCACGUGCGCGUGAAAGAGAGAAGUGAACCAGAGAAACACACGUUGCGGUAUAUUCCCUGGUA, for which the self-cleavage was determined as 0.102.

Turning to GUCCUCUUUCACGUGCGCGUGAAAGAGAGAAGUGAACCAGAGAAACACACGUUGCGGUAUAUUGCCUGGUA, the self-cleavage came out at 0.132.

For the variant GUCCUCUUUCACGUGCGCGUGAAAGAGAGAAGUGAACCAGAGAAACACACGUUGUCGUAUAUUACCUUGUA, the self-cleavage is 0.173.

For the variant GUCCUCUUUCACGUGCGCGUGAAAGAGAGAAGUGAACCAGAGAAACACACGUUGCGGUAUAUUACCUGGUC, the self-cleavage was determined as 0.596.

With GUCCUCUUUCACGUGCGCGUGAAAGAGAGAAGUGAACCAGAGAAACACACGUUGCGGUAUAUUACCUGGUU, the self-cleavage turned out to be 0.16.

Regarding GUCCUCUUUCACGUGCGCGUGAAAGAGAGAAGUGAACCAGAGAAACACACGUUGCGGUAUCUUACCUGGUA, the self-cleavage was determined as 0.0408.

For GUCCUCUUUCACGUGCGCGUGAAAGAGAGAAGUGAACCAGAGAAACACACGUUGAGGUAUAUUACAUGGUA, the self-cleavage worked out at 0.188.

For GUCCUCUUUCACGUGCGCGUGAAAGAGAGAAGUGAACCAGAGAAACACACGUUUGGGUAUAUUACCUGGUA, the self-cleavage was 0.399.

On to GUCCUCUUUCACGUGCGCGUGAAAGAGAGAAGUGAACCAGAGAAACACACGUUGGGGUAUAUUACUUGGUA, for which the self-cleavage amounted to 0.422.

For the variant GUCCUCUUUCACGUGCGCGUGAAAGAGAGAAGUGAACCAGAGAAACACACGUUGAGGUAUGUUACCUGGUA, the self-cleavage was 0.156.

As for GUCCUCUUUCACGUGCGCGUGAAAGAGAGAAGUGAACCAGAGAAACACACGUUGAGGUAUAGUACCUGGUA, the self-cleavage was found to be 0.0995.

In the case of GUCCUCUUUCACGUGCGCGUGAAAGAGAGAAGUGAACCAGAGAAACACACGUUGGGGAAUAUUACCUGGUA, the self-cleavage came out at 0.199.

As to GUCCUCUUUCACGUGCGCGUGAAAGAGAGAAGUGAACCAGAGAAACACACGUUGUAGUAUAUUACCUGCUA, the self-cleavage is 0.108.

On to GUCCUCUUUCACGUGCGCGUGAAAGAGAGAAGUGAACCAGAGAAACACACGUUGGGGUAUAUGACCUGGUA, for which the self-cleavage stood at 0.

GUCCUCUUUCACGUGCGCGUGAAAGAGAGAAGUGAACCAGAGAAACACACGUUGUAGUAUUUUACCUGGUA: the self-cleavage came to 0.166.

With GUCCUCUUUCACGUGCGCGUGAAAGAGAGAAGUGAACCAGAGAAACACACGUUUUGGUACAUUACCUGGUA, the self-cleavage amounted to 0.834.

For GUCCUCUUUCACGUGCGCGUGAAAGAGAGAAGUGAACCAGAGAAACACACGUUGUAGUAUAUUACUUGGUA, the self-cleavage was found to be 0.296.

For GUCCUCUUUCACGUGCGCGUGAAAGAGAGAAGUGAACCAGAGAAACACACGUUGUAGUAUAUUACGUGGUA, the self-cleavage worked out at 0.114.

In the case of GUCCUCUUUCACGUGCGCGUGAAAGAGAGAAGUGAACCAGAGAAACACACGUUGAUGUAUAUUACCUGGUA, the self-cleavage amounted to 0.148.

GUCCUCUUUCACGUGCGCGUGAAAGAGAGAAGUGAACCAGAGAAACACACGUUGACGUAUAUUACCUGGUA: the self-cleavage stood at 0.203.

For the variant GUCCUCUUUCACGUGCGCGUGAAAGAGAGAAGUGAACCAGAGAAACACACGUUGUAGUAUAUUACCUAGUA, the self-cleavage worked out at 0.119.

As for GUCCUCUUUCACGUGCGCGUGAAAGAGAGAAGUGAACCAGAGAAACACACGUUGGGCUAUAUUACCUGGUA, the self-cleavage came to 0.126.

In the case of GUCCUCUUUCACGUGCGCGUGAAAGAGAGAAGUGAACCAGAGAAACACACGUUGAGGUAUAUUCCCUGGUA, the self-cleavage turned out to be 0.13.

In the case of GUCCUCUUUCACGUGCGCGUGAAAGAGAGAAGUGAACCAGAGAAACACACGUUGUCGUAUAUAACCUGGUA, the self-cleavage was 0.0712.

Regarding GUCCUCUUUCACGUGCGCGUGAAAGAGAGAAGUGAACCAGAGAAACACACGUUGUAGUAUAUUACCUGGUG, the self-cleavage worked out at 0.245.

Turning to GUCCUCUUUCACGUGCGCGUGAAAGAGAGAAGUGAACCAGAGAAACACACGUUGUAGUAUAUAACCUGGUA, the self-cleavage was 0.133.

On to GUCCUCUUUCACGUGCGCGUGAAAGAGAGAAGUGAACCAGAGAAACACACGUUGCGGGAUAUUACCUGGUA, for which the self-cleavage worked out at 0.175.

Turning to GUCCUCUUUCACGUGCGCGUGAAAGAGAGAAGUGAACCAGAGAAACACACGUUGCGGCAUAUUACCUGGUA, the self-cleavage came to 0.475.

Turning to GUCCUCUUUCACGUGCGCGUGAAAGAGAGAAGUGAACCAGAGAAACACACGUUGUCGGAUAUUACCUGGUA, the self-cleavage amounted to 0.234.

Regarding GUCCUCUUUCACGUGCGCGUGAAAGAGAGAAGUGAACCAGAGAAACACACGUUGAGGAAUAUUACCUGGUA, the self-cleavage was 0.273.

Regarding GUCCUCUUUCACGUGCGCGUGAAAGAGAGAAGUGAACCAGAGAAACACACGUUGUCCUAUAUUACCUGGUA, the self-cleavage was found to be 0.173.

Regarding GUCCUCUUUCACGUGCGCGUGAAAGAGAGAAGUGAACCAGAGAAACACACGUUGUCUUAUAUUACCUGGUA, the self-cleavage amounted to 0.153.

Regarding GUCCUCUUUCACGUGCGCGUGAAAGAGAGAAGUGAACCAGAGAAACACACGUUGAGCUAUAUUACCUGGUA, the self-cleavage worked out at 0.146.

On to GUCCUCUUUCACGUGCGCGUGAAAGAGAGAAGUGAACCAGAGAAACACACGUUGAGAUAUAUUACCUGGUA, for which the self-cleavage stood at 0.148.

Regarding GUCCUCUUUCACGUGCGCGUGAAAGAGAGAAGUGAACCAGAGAAACACACGUUGUACUAUAUUACCUGGUA, the self-cleavage came to 0.128.

GUCCUCUUUCACGUGCGCGUGAAAGAGAGAAGUGAACCAGAGAAACACACGUUGUAAUAUAUUACCUGGUA: the self-cleavage worked out at 0.136.

As for GUCCUCUUUCACGUGCGCGUGAAAGAGAGAAGUGAACCAGAGAAACACACGUUGGGGUAUAUUACCCGGUA, the self-cleavage worked out at 0.181.

Regarding GUCCUCUUUCACGUGCGCGUGAAAGAGAGAAGUGAACCAGAGAAACACACGUUGUAGUUUAUUACCUGGUA, the self-cleavage is 0.125.
